Assay results reported in paper PMC9814790.
Where no end group is shown, it is not given here. Me3 = trimethyl (trimethylated lysine, Kme3)

Legend:
Assay in all cases: ITC; H3K4me3 peptide (380 uM) titrated to KDM5A PHD3 fingers (28 uM); for AUX WT-KDM5A 190 uM peptide and 21 uM protein; 20 mM TRIS-HCl pH 7.5, 50 mM NaCl, 1 mM DTT; 19 injections; one set of sites model; 7-9 repeats (AUX WT in replicate)
[1] = molecular target: KDM5A PHD3 finger with 5-fluorotryptophan at Trp18 and Trp28 (Homo sapiens) (UniProt P29375)
[2] = molecular target: KDM5A PHD3 finger with 5,6-difluorotryptophan at Trp18 and Trp28 (Homo sapiens) (UniProt P29375)
[3] = molecular target: wild-type KDM5A PHD3 finger expressed in E. coli Rosetta BL21 (DE3)pLysS (Homo sapiens) (UniProt P29375)
[4] = molecular target: wild-type KDM5A PHD3 finger expressed in the auxotrophic E. coli Castellani and Chalmers strain (Homo sapiens) (UniProt P29375)
[5] = molecular target: KDM5A PHD3 finger with 6-fluorotryptophan at Trp18 and Trp28 (Homo sapiens) (UniProt P29375)

- Kd [1]: 49 nM
- dH [1]: -10.9 kcal/mol
- Kd [2]: 70 nM
- dH [2]: -11.7 kcal/mol
- Kd [3]: 54 nM
- dH [3]: -11.6 kcal/mol
- Kd [4]: 48 nM
- dH [4]: -11.9 kcal/mol
- Kd [5]: 57 nM
- dH [5]: -12.1 kcal/mol
Binder: ARTK(Me3)QTARKS [H3K4me3 histone peptide (ARTKme3QTARKS)]
